Test results as given in the supplement of paper PMC9170038.

Tested on: MS2 coat protein
Assay: apparent KD of MS2 coat protein; designed switch direction (-1 OFF switch, 1 ON switch): -1; higher = weaker reporter binding
Summary of the method: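 Stalled E. coli RNA polymerase transcribed designed RNA switches on Illumina chips, which were then titrated with SNAP-549-labelled MS2 coat protein, doubling from 0.7 or 1.5 nM to 3 µM. Steps lasted from 0.8–1.5 h at the lowest concentration to 10–20 min at the highest. The apparent KD is each design's median over clusters of curve-fitted normalised fluorescence.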

[1] = input ligand: microRNA oligo, concentration not stated
[2] = Eterna round: R95, input ligand: microRNA oligo, concentration not stated
[3] = Eterna round: R95, input ligand: FMN 200 uM
[4] = Eterna round: R95, input ligand: none

UGUUGUCGCGUAGGAUAUGAGGAUCACCCAUAUAGAGGAUAUGAAAAGAAGGCUCUGAGGAUUACCCAGAAGGACGGGACAACU [pwkr exNG2 2xF5 2xFMN.22] (Eterna round: R96, puzzle: Exclusion NG 2)
apparent KD of MS2 coat protein (input ligand: FMN 200 uM): 1180 nM | apparent KD of MS2 coat protein [1]: 132 nM | apparent KD of MS2 coat protein (input ligand: none): 155 nM

AUCAUGUAAGGAUAUCUUACAUGUAUCGAAAGAUACAGUUAAGAGAAGGUACAUGAGGAUCACCCAUGUAUAAC [Ex4-3: 35] (puzzle: Exclusion 4)
apparent KD of MS2 coat protein [2]: 25.2 nM

UCUCGCGGGCAAGGAUAUCCUACAUUGUUCUGGCCCGGGCAUGUUACAUGAGGAUCACCCAUGUGGGAGAAGGUGCGCCAGGGC [Design 35] (Eterna round: R96, puzzle: Exclusion NG 2)
apparent KD of MS2 coat protein (input ligand: FMN 200 uM): 29.9 nM | apparent KD of MS2 coat protein [1]: 18.9 nM | apparent KD of MS2 coat protein (input ligand: none): 30.3 nM

UUGUUAUAUGAAGGAUAUACUUAACAUGAGGAUCACCCAUGUGGUGUUGUGAGUGAGUGAGUUUAGUAGAAGGUCAAUGAUUUU [JMF's solution 73] (Eterna round: R96, puzzle: Exclusion NG 2)
apparent KD of MS2 coat protein (input ligand: FMN 200 uM): 513 nM | apparent KD of MS2 coat protein [1]: 309 nM | apparent KD of MS2 coat protein (input ligand: none): 344 nM

GGUUUGGGAGGAUAUGGUUUGAAUAACAUGAGGAUCACCCAUGUAAAUAGAUCUUCUAGGCCAGAAGGCUCGGGCC [-22.1, -20.72 kcal, A 28%] (Eterna round: R97, puzzle: Exclusion 5)
apparent KD of MS2 coat protein (input ligand: FMN 200 uM): 46 nM | apparent KD of MS2 coat protein (input ligand: none): 27.8 nM

AUUGUGUUAGGAUAUGCUUAUGGUGGGUAGUCCAGUAUGAAGUAGAAGGGACAUGAGGAUCACCCAUGUGCUGA [EX4 #36] (Eterna round: R97, puzzle: Exclusion 4)
apparent KD of MS2 coat protein (input ligand: FMN 200 uM): 136 nM | apparent KD of MS2 coat protein (input ligand: none): 164 nM

CCGGUGUGAGGAUAUCCAUCUGGAUCAGACUAGAUCCUGAUGGAGAAGGCACAUGAGGAUCACCCAUGUUACGG [Eli 4x 4.42] (Eterna round: R97, puzzle: Exclusion 4)
apparent KD of MS2 coat protein (input ligand: FMN 200 uM): 567 nM | apparent KD of MS2 coat protein (input ligand: none): 656 nM

CCUCGACAUGAGGAUCACCCAUGUGAGGAUAUGGCCUGUAUGGCGUGAGCUGAAUCAAUCAGAAGGCGCGUGGG [salish99_ex1_r4_054] (Eterna round: R97, puzzle: Exclusion 1)
apparent KD of MS2 coat protein (input ligand: FMN 200 uM): 56.3 nM | apparent KD of MS2 coat protein (input ligand: none): 27 nM

AAUACAAGCUAUUGAUCCCACAUGAGGAUCACCCAUGUAUAUGGCGGUGACACCUCCAUGACGAUAGCUCGUCUUAU [Sensor-V1 #58] (Eterna round: R97, puzzle: Sensor, turn-off variant 1)
apparent KD of MS2 coat protein (input ligand: FMN 200 uM): 567 nM | apparent KD of MS2 coat protein (input ligand: none): 1360 nM

UCAUGGGAGGCAGCUGCCCACAUGAGGAUCACCCAUGUUUUAGACAAACGGGUACAAGCUUUUAAUGCUCUUCUUUG [Eternabot (L2) Solution 49] (Eterna round: R97, puzzle: Sensor, turn-off variant 1)
apparent KD of MS2 coat protein (input ligand: FMN 200 uM): 587 nM | apparent KD of MS2 coat protein (input ligand: none): 248 nM

AACAAGCUAGGAUAUACAUGAGGAUCACCCAUGUGCGACUGAUGUCCCGUGGUUGAGGGUAGAAGGAGCGAAAG [Qucelexe] (puzzle: Exclusion 3)
apparent KD of MS2 coat protein [3]: 239 nM | apparent KD of MS2 coat protein [2]: 210 nM | apparent KD of MS2 coat protein [4]: 226 nM

GCCAGCGUAUAGGAUAUGGCCGGCUUUUGAGUACCAGAAGGAUACACAUGAGGAUCACCCAUGUGGCAUUCGUC [Eternabot (L2) Solution 71] (Eterna round: R97, puzzle: Exclusion 6)
apparent KD of MS2 coat protein (input ligand: FMN 200 uM): 20.5 nM | apparent KD of MS2 coat protein (input ligand: none): 14.7 nM

CACUAACAUGAGGAUCACCCAUGUUAGGAUAUGCAGUUCGGCCAACGGGCCCGAACAUGUAGAAGGAACAGGGU [Eternabot (L2) Solution 44] (Eterna round: R97, puzzle: Exclusion 1)
apparent KD of MS2 coat protein (input ligand: FMN 200 uM): 81.3 nM | apparent KD of MS2 coat protein (input ligand: none): 25.8 nM

AAAUAUCAUGUAGGAUAUGGAAGGCGAACCUAUCCAGAAGGACAUGAGGAUCACCCAUGUGCUGCGUUGUCCGUAGACAGCGCU [Ex NG1 #2] (Eterna round: R96, puzzle: Exclusion NG 1)
apparent KD of MS2 coat protein (input ligand: FMN 200 uM): 88.2 nM | apparent KD of MS2 coat protein [1]: 21.1 nM | apparent KD of MS2 coat protein (input ligand: none): 31.4 nM

UAAGAAUACCGAGGAUAUGGUAGUACAUAUUUACCAGAAGGCGGACUCAACAUGAGGAUCACCCAUGUAUAAAGGGUAUUAGGU [JR_ExcNG1_Sub043] (Eterna round: R96, puzzle: Exclusion NG 1)
apparent KD of MS2 coat protein (input ligand: FMN 200 uM): 94.1 nM | apparent KD of MS2 coat protein [1]: 58.3 nM | apparent KD of MS2 coat protein (input ligand: none): 64.3 nM

UUGUUCCGUGUAGGAUAUUGGCCUCCCUCGGGCCGAGAAGGACAUGAGGAUCACCCAUGUAUGCUAUUAUCGCGCGUGGCGCAC [Design 94] (Eterna round: R96, puzzle: Exclusion NG 1)
apparent KD of MS2 coat protein (input ligand: FMN 200 uM): 330 nM | apparent KD of MS2 coat protein [1]: 23.1 nM | apparent KD of MS2 coat protein (input ligand: none): 25.2 nM

UCAUGUUUAGAGGAUAUGAUUACUUUAGAGUAAUCAGAAGGCUAGACAUGAGGAUCACCCAUGUCAUAACAUGA [Exclusion 6 - B - 15:a] (puzzle: Exclusion 6)
apparent KD of MS2 coat protein [3]: 38.3 nM | apparent KD of MS2 coat protein [2]: 62 nM | apparent KD of MS2 coat protein [4]: 54.3 nM

CACCUGAAUACAGGAUAUCCUACAUGAGGAUCACCCAUGUAAUAAAUGAGAAUUUCGAAUGUAAUGGAGAAGGGUAGAUAAGGC [Ostracism 88 - Jieux - Exclusion NG 2] (Eterna round: R96, puzzle: Exclusion NG 2)
apparent KD of MS2 coat protein (input ligand: FMN 200 uM): 125 nM | apparent KD of MS2 coat protein [1]: 82.8 nM | apparent KD of MS2 coat protein (input ligand: none): 86.6 nM

CGAUGCUCGAGUCGACAUGAGGAUCACCCAUGUAGAGUUAGUGAGGAUAUCGGAGACACAUAGUAUGAGAAGGCGCGAACCUGA [Ex NG3 #17] (Eterna round: R96, puzzle: Exclusion NG 3)
apparent KD of MS2 coat protein (input ligand: FMN 200 uM): 21.8 nM | apparent KD of MS2 coat protein [1]: 16.3 nM | apparent KD of MS2 coat protein (input ligand: none): 18.8 nM

CAUACGGCAGGAUAUGCGUGGCCAUCUUAGCUCUACCUAAGACAUGAGGAUCACCCAUGUAGAAGGGUUACAUA [Eternabot (Original) Solution 41] (Eterna round: R97, puzzle: Exclusion 2)
apparent KD of MS2 coat protein (input ligand: FMN 200 uM): 20.5 nM | apparent KD of MS2 coat protein (input ligand: none): 19.8 nM

UCAUGUUUAGAGGAUAUGAUUACUCUAGAGUGAUCAGAAGGCUAGACAUGAGGAUCACCCAUGUCACAACAUGA [Exclusion 6 - B - 16:c] (puzzle: Exclusion 6)
apparent KD of MS2 coat protein [3]: 73.6 nM | apparent KD of MS2 coat protein [2]: 44.5 nM | apparent KD of MS2 coat protein [4]: 128 nM

CCUAGUUGGUAAGGAUAUCCUACACUGUUCUGACCCGGGCAUGCUACAUGAGGAUCACCCAUGUGGGAGAAGGUGCGUCAUCGC [Design 15] (Eterna round: R96, puzzle: Exclusion NG 2)
apparent KD of MS2 coat protein (input ligand: FMN 200 uM): 30.5 nM | apparent KD of MS2 coat protein [1]: 27.1 nM | apparent KD of MS2 coat protein (input ligand: none): 37.3 nM

ACGAUGAUCGAAAAGUGUAAAUCGACAUGAGGAUCACCCAUGUAGGAUAUGGCUACGAAAAGUAGUCAGAAGGGCAUGUCAUCA [3 Av 11 mod - 1] (Eterna round: R96, puzzle: Exclusion NG 3)
apparent KD of MS2 coat protein (input ligand: FMN 200 uM): 36.9 nM | apparent KD of MS2 coat protein [1]: 25.7 nM | apparent KD of MS2 coat protein (input ligand: none): 31.1 nM

GAGUUAGCGUGAGGAAUAUACAUGAGGAUCACCCAUGUUAGCUAAUAUAUUGCUCGUCUUAUAACAACAAUUAACUC [Alarm 10 - Jieux - Sensor, turn-off variant 1] (Eterna round: R97, puzzle: Sensor, turn-off variant 1)
apparent KD of MS2 coat protein (input ligand: FMN 200 uM): 14.6 nM | apparent KD of MS2 coat protein (input ligand: none): 13.2 nM

CUUCGUUGUAAGGAUAUCCAGACUCUUCCUGUCGGAGAAGGUACAACAUGAGGAUCACCCAUGUUGCUACAUGG [Zaaqu] (puzzle: Exclusion 6)
apparent KD of MS2 coat protein [2]: 21.6 nM

CCUCCACAUGAGGAUCACCCAUGUAAGGAUAUACCACGCUAAGGCAAACAAAAGAACGGUAGAAGGUACCUGGC [Eternabot (Original) Solution 44] (Eterna round: R97, puzzle: Exclusion 1)
apparent KD of MS2 coat protein (input ligand: FMN 200 uM): 32.7 nM | apparent KD of MS2 coat protein (input ligand: none): 23.5 nM

CUAGACGGAGGAUAUACGAGAUCGAAAGAUCGGCGAUCCCUACAUGAGGAUCACCCAUGUAGAAGGCUGUUUAG [Mod 19 - Jieux - Exclusion 2] (Eterna round: R97, puzzle: Exclusion 2)
apparent KD of MS2 coat protein (input ligand: FMN 200 uM): 69.9 nM | apparent KD of MS2 coat protein (input ligand: none): 16.2 nM

CCAGUGUGAGGAUAUACAUGGAUAGUUUUAUAUAGUAUGUUACAUGAGGAUCACCCAUGUAGAAGGUAUAUCGG [15.1, 13.8 kcal, A 31%] (Eterna round: R97, puzzle: Exclusion 2)
apparent KD of MS2 coat protein (input ligand: FMN 200 uM): 22.5 nM | apparent KD of MS2 coat protein (input ligand: none): 28.7 nM

CUAGUAUAUCAGGAUAUGAUUUUAUAUAGUUGGUCAGAAGGGAUGACAUGAGGAUCACCCAUGUUAAGGAGUGA [JR_Ex6_Sub043] (Eterna round: R97, puzzle: Exclusion 6)
apparent KD of MS2 coat protein (input ligand: FMN 200 uM): 143 nM | apparent KD of MS2 coat protein (input ligand: none): 118 nM

GGAAGGUGAGGAUAUACAAAGACGGAAACGUCAGGUGAGAGACAUGAGGAUCACCCAUGUAGAAGGCACGGAGA [AK-MS2ROC-r4-exclusion2-16.1] (Eterna round: R97, puzzle: Exclusion 2)
apparent KD of MS2 coat protein (input ligand: FMN 200 uM): 279 nM | apparent KD of MS2 coat protein (input ligand: none): 74.4 nM

GAUUAUGCGAGCUUUAGGGACAUGAGGAUCACCCAUGUUCGUCUUAUUAAUCUGGGUACACUAGCAUACCUAAAUCU [JMF 8] (puzzle: Sensor v3, turn-off variant 1)
apparent KD of MS2 coat protein [3]: 26.9 nM | apparent KD of MS2 coat protein [2]: 44.1 nM | apparent KD of MS2 coat protein [4]: 30.5 nM

CAUGGAUGUGAGCCGCAUUACAUGAGGAUCACCCAUGUCAACAAGCUUUUUGCUUGUCUUACGCGGCGGCACCAGAA [Getelexe] (Eterna round: R96, puzzle: Sensor v3, turn-off variant 1)
apparent KD of MS2 coat protein (input ligand: FMN 200 uM): 13 nM | apparent KD of MS2 coat protein [1]: 6.81 nM | apparent KD of MS2 coat protein (input ligand: none): 14.9 nM

GCGGACUUGAACGUGAGUUCAGAGACAUGAGGAUCACCCAUGUAGGAUAUCGAUUCGAAACGAAUCGAGAAGGGCAUAGUCCGC [JL denovo 13] (Eterna round: R96, puzzle: Exclusion NG 3)
apparent KD of MS2 coat protein (input ligand: FMN 200 uM): 23.3 nM | apparent KD of MS2 coat protein [1]: 11.8 nM | apparent KD of MS2 coat protein (input ligand: none): 16.1 nM
